Results from article PMC5767221.

Biological target: mGlu5-NanoLuc (UniProt P31424)
Test: FRET or BRET; intermolecular BRET imaging in live hippocampal neurons expressing mGlu5-NanoLuc (donor) and Venus-Homer (acceptor); recorded for 30 min in soma and dendritic spines; control KCl 3 mM, and before and during depolarization with KCl 55 mM

Sequence of UniProt P31424 (P31424 21-1203): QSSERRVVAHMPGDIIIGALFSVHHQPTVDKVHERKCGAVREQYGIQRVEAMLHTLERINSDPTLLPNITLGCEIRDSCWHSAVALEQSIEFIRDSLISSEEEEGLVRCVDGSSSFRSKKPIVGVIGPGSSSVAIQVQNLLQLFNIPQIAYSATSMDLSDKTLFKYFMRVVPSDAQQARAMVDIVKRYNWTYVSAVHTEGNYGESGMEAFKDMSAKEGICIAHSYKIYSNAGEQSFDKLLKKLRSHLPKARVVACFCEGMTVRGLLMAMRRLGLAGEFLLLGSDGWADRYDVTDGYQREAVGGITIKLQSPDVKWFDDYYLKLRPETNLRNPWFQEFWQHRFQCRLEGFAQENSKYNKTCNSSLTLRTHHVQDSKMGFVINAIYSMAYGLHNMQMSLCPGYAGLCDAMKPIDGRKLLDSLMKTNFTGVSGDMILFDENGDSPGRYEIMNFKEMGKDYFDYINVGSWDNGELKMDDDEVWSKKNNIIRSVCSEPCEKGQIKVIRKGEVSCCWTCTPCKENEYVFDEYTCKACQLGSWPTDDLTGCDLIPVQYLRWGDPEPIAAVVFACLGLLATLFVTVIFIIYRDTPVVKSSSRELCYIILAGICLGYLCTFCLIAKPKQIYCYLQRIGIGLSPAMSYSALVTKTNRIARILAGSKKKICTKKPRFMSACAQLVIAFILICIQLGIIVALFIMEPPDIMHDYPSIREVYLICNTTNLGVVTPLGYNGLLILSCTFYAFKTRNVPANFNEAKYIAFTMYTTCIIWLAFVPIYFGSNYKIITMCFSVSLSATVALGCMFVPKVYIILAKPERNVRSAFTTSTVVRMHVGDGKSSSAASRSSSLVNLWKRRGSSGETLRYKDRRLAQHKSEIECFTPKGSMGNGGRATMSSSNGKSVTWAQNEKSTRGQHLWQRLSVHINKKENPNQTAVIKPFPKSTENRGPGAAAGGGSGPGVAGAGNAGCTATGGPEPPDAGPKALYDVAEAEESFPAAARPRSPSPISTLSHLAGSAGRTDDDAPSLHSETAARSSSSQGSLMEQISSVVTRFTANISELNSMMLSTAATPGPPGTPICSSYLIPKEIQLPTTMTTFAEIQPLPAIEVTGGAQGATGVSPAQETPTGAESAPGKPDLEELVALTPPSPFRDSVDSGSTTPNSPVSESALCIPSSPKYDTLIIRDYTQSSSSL

drop of BRET signal with KCl 55 mM against before depolarization (soma): 15% | drop of BRET signal with KCl 55 mM against before depolarization (spines): 16%
Substance: Venus-Homer (from UniProt Q9Z214 1-366) (natural protein)
